In patent US20220127350A1 (NUMAB THERAPEUTICS, published 2022):
Each block holds one binder with its values, some of them ahead of it.

Assays:
human IL-17A [1] = target: T1, human IL-17A (human, UniProt Q16552 24-155); test: SPR (summary table), affinity to human IL-17, capture setup
T1 construct: Recombinant human IL-17A (Peprotech Cat. No. 200-17), disulfide-linked homodimer from E. coli; Biotinylated or RPE-labelled in some assays; also called hIL-17A; IL-17A-RPE (labelled)
Experimental: (§1) In this experiment, the biotinylated antigens were captured using the Biotin-CAPture kit from Biacore. After each analyte injection cycle the CAP sensor chip was regenerated and new antigen was captured. Trispecific molecules were injected as analyte using a dose response multicycle kinetic assay with concentrations of the analyte ranging from 0.35 to 90 nM diluted in running buffer. Obtained sensorgrams were fitted using the 1:1 binding model.

human serum albumin [2] = target: T2, human serum albumin (human, UniProt P02768 25-609); test: SPR (MASS-1), HSA immobilised, trispecific as analyte, pH 5.5
T2 construct: also called HSA
Experimental: (§2) The binding to human serum albumin (HSA) and cynomolgus serum albumin (CSA) was assessed for purified trispecific molecules by running SPR spectroscopy on a MASS-1 device (Sierra Sensors). HSA was directly immobilized on a high capacity amine sensor chip (Sierra Sensors) and trispecific molecules were injected as analyte using a dose response multicycle kinetic assay with concentrations of the analyte ranging from 0.35 to 90 nM diluted either in running buffer at pH5.5 or pH7.5. Obtained sensorgrams were fitted using the 1:1 binding model. Affinity to CSA was assessed in a similar approach using a CSA immobilized sensor chip.

human IL-17A [3] = target: T1, human IL-17A; test: competitive ELISA: biotinylated human IL-17A preincubated with the trispecific molecule, then binding to coated IL-17RA detected (blocked ligand: IL-17RA) [left panel]
cynomolgus serum albumin [4] = target: T3, cynomolgus serum albumin (cynomolgus monkey, UniProt A2V9Z4 25-608); test: SPR (MASS-1), CSA immobilised, trispecific as analyte, pH 5.5
T3 construct: also called CSA
Experimental: as §2

human serum albumin [5] = target: T2, human serum albumin; test: SPR (MASS-1), HSA immobilised, trispecific as analyte, pH 7.4
Experimental: as §2

human IL-17A [6] = target: T1, human IL-17A; test: competitive ELISA, blocking of IL-17A/IL-17RA interaction (summary table)
Experimental: (§3) Finally, Tetramethylbenzidine solution was added to develop the plate for 5 to 10 minutes and the reaction was stopped with 1 M HCl. The plate was read at 450 nm and 570 nm (reference wavelength).

human IL-17A [7] = target: T1, human IL-17A; test: competitive ELISA: IL-17RA coated, biotinylated IL-17A preincubated with trispecific molecule
Experimental: as §3

human TNFα [8] = target: T4, human TNFα (human, UniProt P01375 77-233); test: SPR (summary table), affinity to human TNF
T4 construct: Biotinylated in the Biacore assay
Experimental: as §1

human TNFα [9] = target: T4, human TNFα; test: cell-based or functional assay
human IL-17A [10] = target: T1, human IL-17A; test: SPR (Biacore T200), biotinylated antigen captured (Biotin-CAPture), trispecific as analyte;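 also: multicycle dose-response kinetics, analyte at 0.35–90 nM in running buffer, CAP chip regenerated with fresh antigen each cycle, sensorgrams fitted to a 1:1 binding model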
Experimental: as §1

human TNFα [11] = target: T4, human TNFα; test: as above
Experimental: as §1

cynomolgus monkey IL-17A = target: T5, cynomolgus monkey IL-17A (Macaca fascicularis (cynomolgus monkey)); test: as above
T5 construct: also called cyno IL-17A; cyno IL17A
Experimental: as §1

human serum albumin [12] = target: T2, human serum albumin; test: SPR (summary table), affinity to HSA at pH 5.5
Experimental: as §2

human IL-17A [13] = target: T1, human IL-17A; test: cell-based or functional assay
cynomolgus serum albumin [14] = target: T3, cynomolgus serum albumin; test: SPR (MASS-1), CSA immobilised, trispecific as analyte, pH 7.4
Experimental: as §2

human IL-17A [15] = target: T1, human IL-17A; test: cell-based or functional assay; remark: listed apart in the source
human TNFα [16] = target: T4, human TNFα; test: cell-based or functional assay; remark: listed apart in the source
human IL-17A [17] = target: T1, human IL-17A; test: competitive ELISA: biotinylated human IL-17A preincubated with the trispecific molecule, then binding to coated IL-17RA detected (blocked ligand: IL-17RA) [right panel]
human serum albumin [18] = target: T2, human serum albumin; test: SPR (MASS-1), trispecific immobilised, HSA injected as last analyte
Experimental: (§4) All possible sequences of antigen injection were tested resulting in six possible sequences.
(§5) To evaluate concomitant binding of each antigen to trispecific molecules, the binding level relative to the theoretical Rmax was calculated for each injection using the respective ligand and analyte molecular masses and the immobilization level of the trispecific molecules. The average of the maximum binding relative to theoretical Rmax for each antigen was obtained by averaging individual maximum binding relative to theoretical Rmax obtained for the two injections where the respective antigen was injected as first analyte (in the absence of other bound antigens). Next, the binding relative to the theoretical Rmax of each analyte injection was compared to its average maximum binding to calculate the fraction binding obtained in the presence of other bound antigens. […] The binding levels relative to the theoretical Rmax and the average of maximum binding (binding levels in the absence of other antigens) of each antigen were calculated.

human IL-17A [19] = target: T1, human IL-17A; test: SPR (MASS-1), trispecific immobilised, antigens injected sequentially
Experimental: as §4, §5

human TNFα [20] = target: T4, human TNFα; test: as above
Experimental: as §4, §5

human serum albumin [21] = target: T2, human serum albumin; test: as above
Experimental: as §4, §5

Kd (human IL-17A [1]): 0.575 nM
Kd (human serum albumin [2]): 1.66 nM
IC50 (read off the curve) (human IL-17A [3]): ~4 ng/mL
Kd (cynomolgus serum albumin [4]): 0.795 nM
Kd (human serum albumin [5]): 2.69 nM
rel. IC50 (IC50, secukinumab/IC50, test sample, ng/ml) (human IL-17A [6]): 4.9
rel. IC50 to secukinumab (IC50, secukinumab/IC50, test sample, ng/ml) (human IL-17A [7]): 4.9
Kd (human TNFα [8]): 0.1 nM
rel. IC50 in L929 assay (IC50, A13/IC50, test sample, nM) (human TNFα [9]): 0.9
Kd (human IL-17A [10]): 0.575 nM
Kd (human TNFα [11]): 0.1 nM
Kd (cynomolgus monkey IL-17A): 0.523 nM
Kd (human serum albumin [12]): 1.66 nM
potency to neutralize IL-17A compared to A7 (human IL-17A [13]): ~2 fold
Kd (cynomolgus serum albumin [14]): 2.47 nM
rel. IC50 to secukinumab (ng/ml) in HT-29 assay, +HSA (human IL-17A [15]): 63
rel. IC50 to secukinumab (ng/ml) in HT-29 assay, -HSA (human IL-17A [15]): 88.9
rel. IC50 to A13 (nM) in HT-29 assay, -HSA (human TNFα [16]): 2.4
B1: A5 (trispecific tribody, Fab-(scFv)2) (other)
light: DIQMTQSPSSLSASVGDRVTINCQASESISSWLAWYQQKPGKRPKLLIYKASTLASGVPSRFSGSGSGTDYTLTISSLQPEDFATYYCQGYYLDSSVDDNVFGGGTKLTVLGRTRTVAAPSVFIFPPSDEQLKSGTASVVCLLNNFYPREAKVQWKVDNALQSGNSQESVTEQDSKDSTYSLSSTLTLSKADYEKHKVYACEVTHQGLSSPVTKSFNRGECGGGGSGGGGSDIQMTQSPSSLSASVGDRVTITCQSSESVYSNNQLSWYQQKPGQPPKLLIYDASDLASGVPSRFSGSGSGTDFTLTISSLQPEDFATYYCAGGFSSSSDTAFGGGTKLTVLGGGGGSGGGGSGGGGSGGGGSEVQLVESGGGLVQPGGSLRLSCAASGFSLSSNAMGWVRQAPGKGLEYIGIISVGGFTYYASWAKGRFTISRDNSKNTVYLQMNSLRAEDTATYFCARDRHGGDSSGAFYLWGQGTLVTVSS
heavy: EVQLVESGGGLVQPGGSLRLSCAASGIDFSTYGISWVRQAPGKGLEWIAYIYPDYGITDYASWVNGRFTISLDNAQNTVYLQMNSLRAEDTAVYYCARSGSYYSRGWGAHYFNLWGQGTLVTVSSASTKGPSVFPLAPSSKSTSGGTAALGCLVKDYFPEPVTVSWNSGALTSGVHTFPAVLQSSGLYSLSSVVTVPSSSLGTQTYICNVNHKPSNTKVDKKVEPKSCGGGGSGGGGSDIQMTQSPSSLSASVGDRVTITCQASQTINYWLAWYQQKPGKAPKLLIYRASTLASGVPSRFSGSGSGTDFTLTISSLQPEDFATYYCQNYYYSTSRSYGFGGGTKLTVLGGGGGSGGGGSGGGGSGGGGSEVQLVESGGGLVQPGGSLRLSCAASGFSFSSDYWMCWVRQAPGKGLEWIGCIYAGDVDDTDYASWARGRFTISRDNSKNTVYLQMNSLRAEDTAVYYCARVDGFDITYFDLWGQGTLVTVSS
notes: Trispecific tribody
IC50 in L929 assay, cell viability (human TNFα [9]): 0.02 nM

Kd (human IL-17A [1]): 0.414 nM
Kd (human serum albumin [2]): 0.77 nM
koff (human serum albumin [2]): 0.000365 s⁻¹
kon (human serum albumin [2]): 475000 M⁻¹ s⁻¹
IC50 (read off the curve) (human IL-17A [17]): ~5 ng/mL
Kd (human serum albumin [5]): 1.25 nM
koff (human serum albumin [5]): 0.000332 s⁻¹
kon (human serum albumin [5]): 266000 M⁻¹ s⁻¹
relative binding level compared to average maximum binding (human serum albumin [18]): ~70%
antigen binding relative to average maximum binding (human IL-17A [19]): ≥ 70%
antigen binding relative to average maximum binding (human TNFα [20]): ≥ 70%
antigen binding relative to average maximum binding (human serum albumin [21]): ≥ 70%
rel. IC50 (IC50, secukinumab/IC50, test sample, ng/ml) (human IL-17A [6]): 10
rel. IC50 to secukinumab (IC50, secukinumab/IC50, test sample, ng/ml) (human IL-17A [7]): 10
Kd (human TNFα [8]): 0.0237 nM
rel. IC50 in L929 assay (IC50, A13/IC50, test sample, nM) (human TNFα [9]): 0.2
Kd (human IL-17A [10]): 0.414 nM
koff (human IL-17A [10]): 8.96e-05 s⁻¹
kon (human IL-17A [10]): 216000 M⁻¹ s⁻¹
Kd (human TNFα [11]): 0.0237 nM
koff (human TNFα [11]): 2.66e-06 s⁻¹
kon (human TNFα [11]): 112000 M⁻¹ s⁻¹
Kd (human serum albumin [12]): 0.77 nM
rel. IC50 to secukinumab (ng/ml) in HT-29 assay, +HSA (human IL-17A [15]): 26.8
rel. IC50 to secukinumab (ng/ml) in HT-29 assay, -HSA (human IL-17A [15]): 30
rel. IC50 to A13 (nM) in HT-29 assay, +HSA (human TNFα [16]): 1
rel. IC50 to A13 (nM) in HT-29 assay, -HSA (human TNFα [16]): 0.6
B2: A6 (trispecific scDb-scFv) (other)
chain: DIQMTQSPSSLSASVGDRVTITCQASQTINYWLAWYQQKPGKAPKLLIYRASTLASGVPSRFSGSGSGTDFTLTISSLQPEDFATYYCQNYYYSTSRSYGFGGGTKLTVLGGGGGSEVQLVESGGGLVQPGGSLRLSCAASGFSLSSNAMGWVRQAPGKGLEYIGIISVGGFTYYASWAKGRFTISRDNSKNTVYLQMNSLRAEDTATYFCARDRHGGDSSGAFYLWGQGTLVTVSSGGGGSGGGGSGGGGSGGGGSDIQMTQSPSSLSASVGDRVTITCQSSESVYSNNQLSWYQQKPGQPPKLLIYDASDLASGVPSRFSGSGSGTDFTLTISSLQPEDFATYYCAGGFSSSSDTAFGGGTKLTVLGGGGGSEVQLVESGGGLVQPGGSLRLSCAASGFSFSSDYWMCWVRQAPGKGLEWIGCIYAGDVDDTDYASWARGRFTISRDNSKNTVYLQMNSLRAEDTAVYYCARVDGFDITYFDLWGQGTLVTVSSGGGGSGGGGSDIQMTQSPSSLSASVGDRVTINCQASESISSWLAWYQQKPGKRPKLLIYKASTLASGVPSRFSGSGSGTDYTLTISSLQPEDFATYYCQGYYLDSSVDDNVFGGGTKLTVLGGGGGSGGGGSGGGGSGGGGSEVQLVESGGGLVQPGGSLRLSCAASGIDFSTYGISWVRQAPGKGLEWIAYIYPDYGITDYASWVNGRFTISLDNAQNTVYLQMNSLRAEDTAVYYCARSGSYYSRGWGAHYFNLWGQGTLVTVSS
notes: Single chain
IC50 in L929 assay, cell viability (human TNFα [9]): 0.06 nM

Kd (human IL-17A [1]): 0.341 nM
Kd (human serum albumin [2]): 1.32 nM
koff (human serum albumin [2]): 0.000373 s⁻¹
kon (human serum albumin [2]): 284000 M⁻¹ s⁻¹
IC50 (read off the curve) (human IL-17A [17]): ~5 ng/mL
Kd (cynomolgus serum albumin [4]): 0.463 nM
koff (cynomolgus serum albumin [4]): 0.000147 s⁻¹
kon (cynomolgus serum albumin [4]): 318000 M⁻¹ s⁻¹
Kd (human serum albumin [5]): 1.91 nM
koff (human serum albumin [5]): 0.000369 s⁻¹
kon (human serum albumin [5]): 193000 M⁻¹ s⁻¹
relative binding level compared to average maximum binding (human serum albumin [18]): ~70%
antigen binding relative to average maximum binding (human IL-17A [19]): ≥ 70%
antigen binding relative to average maximum binding (human TNFα [20]): ≥ 70%
antigen binding relative to average maximum binding (human serum albumin [21]): ≥ 70%
rel. IC50 (IC50, secukinumab/IC50, test sample, ng/ml) (human IL-17A [6]): 10.6
rel. IC50 to secukinumab (IC50, secukinumab/IC50, test sample, ng/ml) (human IL-17A [7]): 10.6
Kd (human TNFα [8]): 0.122 nM
rel. IC50 in L929 assay (IC50, A13/IC50, test sample, nM) (human TNFα [9]): 1
Kd (human IL-17A [10]): 0.341 nM
koff (human IL-17A [10]): 7.83e-05 s⁻¹
kon (human IL-17A [10]): 229000 M⁻¹ s⁻¹
Kd (human TNFα [11]): 0.122 nM
koff (human TNFα [11]): 3.59e-05 s⁻¹
kon (human TNFα [11]): 296000 M⁻¹ s⁻¹
Kd (cynomolgus monkey IL-17A): 0.223 nM
koff (cynomolgus monkey IL-17A): 5.89e-05 s⁻¹
kon (cynomolgus monkey IL-17A): 264000 M⁻¹ s⁻¹
Kd (human serum albumin [12]): 1.32 nM
Kd (cynomolgus serum albumin [14]): 1.31 nM
koff (cynomolgus serum albumin [14]): 0.000215 s⁻¹
kon (cynomolgus serum albumin [14]): 164000 M⁻¹ s⁻¹
rel. IC50 to secukinumab (ng/ml) in HT-29 assay, +HSA (human IL-17A [15]): 64.5
rel. IC50 to secukinumab (ng/ml) in HT-29 assay, -HSA (human IL-17A [15]): 52
rel. IC50 to A13 (nM) in HT-29 assay, +HSA (human TNFα [16]): 1
rel. IC50 to A13 (nM) in HT-29 assay, -HSA (human TNFα [16]): 4.8
B3: A7 (trispecific scDb-scFv) (other)
chain: DIQMTQSPSSLSASVGDRVTINCQASESISSWLAWYQQKPGKRPKLLIYKASTLASGVPSRFSGSGSGTDYTLTISSLQPEDFATYYCQGYYLDSSVDDNVFGGGTKLTVLGGGGGSEVQLVESGGGLVQPGGSLRLSCAASGFSFSSDYWMCWVRQAPGKGLEWIGCIYAGDVDDTDYASWARGRFTISRDNSKNTVYLQMNSLRAEDTAVYYCARVDGFDITYFDLWGQGTLVTVSSGGGGSGGGGSGGGGSGGGGSDIQMTQSPSSLSASVGDRVTITCQASQTINYWLAWYQQKPGKAPKLLIYRASTLASGVPSRFSGSGSGTDFTLTISSLQPEDFATYYCQNYYYSTSRSYGFGGGTKLTVLGGGGGSEVQLVESGGGLVQPGGSLRLSCAASGIDFSTYGISWVRQAPGKGLEWIAYIYPDYGITDYASWVNGRFTISLDNAQNTVYLQMNSLRAEDTAVYYCARSGSYYSRGWGAHYFNLWGQGTLVTVSSGGGGSGGGGSDIQMTQSPSSLSASVGDRVTITCQSSESVYSNNQLSWYQQKPGQPPKLLIYDASDLASGVPSRFSGSGSGTDFTLTISSLQPEDFATYYCAGGFSSSSDTAFGGGTKLTVLGGGGGSGGGGSGGGGSGGGGSEVQLVESGGGLVQPGGSLRLSCAASGFSLSSNAMGWVRQAPGKGLEYIGIISVGGFTYYASWAKGRFTISRDNSKNTVYLQMNSLRAEDTATYFCARDRHGGDSSGAFYLWGQGTLVTVSS
notes: Single chain; also called scDb-scFv A7
IC50 in L929 assay, cell viability (human TNFα [9]): 0.01 nM
